Reference: patent publication US20180195091A1, “THERMOPHILIC MICROORGANISMS FOR CONVERSION OF LIGNOCELLULOSIC BIOMASS TO ETHANOL” (THE TRUSTEES OF DARTMOUTH COLLEGE, priority 2015, published 2018)
“And” between values parts separate entries of the source, which are not always exact repeats. Equal entries are not always repeated.

What was measured:
[1] = tested on: purified AdhE proteins in C. thermocellum, with the exception of LL346; experiment: Product inhibition of purified AdhE; format: biochemical, Clostridium thermocellum; settings: concentration not stated
Method: The E. coli crude extracts described above were incubated at 50° C. anaerobically for 20 min to denature E. coli proteins, and the denatured proteins were separated by centrifugation. In strains LL346 and LL1040, the AdhE proteins were heat labile, and lost activity after 50° C. incubation, so these cell extracts were applied directly to the purification column without heating. E. coli cells expressing the control plasmid pNT-CALML3 were subject to the same treatment as above, and its ADH and ALDH activities before and after heat treatment were measured (Table S3). […] For C. thermocellum and T. saccharolyticum AdhE, activity was measured at various stages during purification. […]
All the ALDH activity measurements mentioned in this study refer to the reaction in the acetaldehyde-producing direction. […] Decrease in absorbance at 340 nm caused by NAD(P)H oxidation was monitored by an Agilent 8453 UV-Vis spectrophotometer with Peltier temperature control. Protein concentration was determined using the Bradford method with bovine serum albumin (Thermo Scientific) as the standard. Specific activities are expressed as units per mg of protein. […] The software Visual Enzymics (SoftZymics) was used for non-linear regression to calculate the apparent Km, and kcat values in Table 10. kcat was calculated on the basis of a molecular weight of 97-kDa (26). […]

[2] = target: Clostridium thermocellum LL346 (ethanol-tolerant) AdhE, mutations P704L and H734R (Acetivibrio thermocellus, UniProt A3DCI2, H734R/P704L)
[3] = substrate: NC(=O)C1=CN([C@@H]2O[C@H](COP(=O)(O)OP(=O)(O)OC[C@H]3O[C@@H](n4cnc5c(N)ncnc54)[C@H](OP(=O)(O)O)[C@@H]3O)[C@@H](O)[C@H]2O)C=CC1; experiment: purified protein, by the assay type; settings: pH 7.0; 55.0 °C
[4] = substrate: CC=O; experiment: purified protein, by the assay type; settings: pH 7.0; 55.0 °C
[5] = substrate: NC(=O)C1=CN([C@@H]2O[C@H](COP(=O)(O)OP(=O)(O)OC[C@H]3O[C@@H](n4cnc5c(N)ncnc54)[C@H](O)[C@@H]3O)[C@@H](O)[C@H]2O)C=CC1; experiment: purified protein, by the assay type; settings: pH 7.0; 55.0 °C
[6] = substrate: NC(=O)C1=CN([C@@H]2O[C@H](COP(=O)(O)OP(=O)(O)OC[C@H]3O[C@@H](n4cnc5c(N)ncnc54)[C@H](O)[C@@H]3O)[C@@H](O)[C@H]2O)C=CC1; experiment: purified protein, by the assay type; settings: pH 7.0; 55.0 °C; remark: listed apart in the source
[7] = substrate: CC(=O)SCCNC(=O)CCNC(=O)[C@H](O)C(C)(C)COP(=O)(O)OP(=O)(O)OC[C@H]1O[C@@H](n2cnc3c(N)ncnc32)[C@H](O)[C@@H]1OP(=O)(O)O; experiment: purified protein, by the assay type; settings: pH 7.0; 55.0 °C
[8] = substrate: CC=O; experiment: ADH reaction (acetaldehyde reduction) of purified AdhE, apparent kinetics; format: biochemical, Clostridium thermocellum; settings: pH 7.0; 55.0 °C
Method: (§1) 500 μL of E. coli culture containing a plasmid with the adhE gene of interest was inoculated into 100 mL sterile LB broth Miller (Acros) with the appropriate antibiotic, and were grown aerobically to OD600 0.5 with shaking at 200 rpm at 37° C. (Eppendorf Innova 42 shaker). The E. coli strain harboring the pNT-CALML3 control plasmid (Invitrogen) was used as a negative control to measure native E. coli ADH or ALDH activity. The cultures were then transferred to sterile serum bottles, and 40 mM IPTG (Isopropyl β-D-1-thiogalactopyranoside) was used to induce protein expression. The serum bottles were then purged with nitrogen to generate an anaerobic protein expression environment, and the cells were cultured for 2 h at 37° C. before harvesting.
(§2) The E. coli crude extracts described above were incubated at 50° C. anaerobically for 20 min to denature E. coli proteins, and the denatured proteins were separated by centrifugation. In strains LL346 and LL1040, the AdhE proteins were heat labile, and lost activity after 50° C. incubation, so these cell extracts were applied directly to the purification column without heating. E. coli cells expressing the control plasmid pNT-CALML3 were subject to the same treatment as above, and its ADH and ALDH activities before and after heat treatment were measured (Table S3). The cell extracts containing His-tagged AdhE were then subjected to anaerobic affinity column purification (Ni-NTA spin columns, Qiagen). The purification was carried out according to the Qiagen protocol “Ni-NTA Agarose Purification of 6×His-tagged Proteins from E. coli under Native Conditions” with some modifications as described below. The column was first equilibrated with Equilibrium Buffer (50 mM NaH2PO4, 300 mM NaCl, 5 mM imidazole, 5 μM FeSO4, pH 7), then cell extracts were applied to the column and the column was washed twice with Wash Buffer (50 mM NaH2PO4, 300 mM NaCl, 50 mM imidazole, 20% ethanol, 5 μM FeSO4, pH 7). The His-tagged AdhE was eluted by addition of 200 μL Elution Buffer (50 mM NaH2PO4, 300 mM NaCl, 500 mM imidazole, 5 μM FeSO4, pH 7), this is “Eluent 1” in Table S3 and S4. Repeating this elution step sequentially generated more purified “Eluent 2” and “Eluent 3”. For C. thermocellum and T. saccharolyticum AdhE, activity was measured at various stages during purification. […] The degree of protein purity was estimated by gel densitometry using the image analysis software ImageJ, where the density of each visible gel band from Eluent 3 was plotted as peaks. The area of each peak was then integrated to generate percentages, which is an indicator of AdhE purity E. coli cell extracts with native AdhE expressed (i.e. without the His-tag) were used directly without purification.
(§3) All the ALDH activity measurements mentioned in this study refer to the reaction in the acetaldehyde-producing direction. All the ADH activity measurements mentioned in this study refer to the reaction in the ethanol-producing direction. For ADH (acetaldehyde reduction) reactions, the anaerobic reaction mixture contained 0.24 mM NADH or NADPH, 17.6 mM acetaldehyde, 1 mM DTT, 100 mM Tris-HCl, 5 μM FeSO4 and cell extract or purified protein solution (protein amount indicated separately for each assay). The final volume was 850 μL, the assay temperature was 55° C. and the assay was started by the addition of acetaldehyde. For ALDH (acetyl-CoA reduction) reactions, the acetaldehyde in the above anaerobic reaction mixture was substituted with 0.35 mM acetyl-CoA. Decrease in absorbance at 340 nm caused by NAD(P)H oxidation was monitored by an Agilent 8453 UV-Vis spectrophotometer with Peltier temperature control. Protein concentration was determined using the Bradford method with bovine serum albumin (Thermo Scientific) as the standard. Specific activities are expressed as units per mg of protein. One unit of activity=formation of 1 μmol of product per min Specific activities in Table 8 and Table 9 are reported for at least two biological replicates. […]

[9] = substrate: NC(=O)C1=CN([C@@H]2O[C@H](COP(=O)(O)OP(=O)(O)OC[C@H]3O[C@@H](n4cnc5c(N)ncnc54)[C@H](O)[C@@H]3O)[C@@H](O)[C@H]2O)C=CC1; experiment: as above; format: biochemical, Clostridium thermocellum; settings: pH 7.0; 55.0 °C
Method: as §1, §2, §3

[10] = substrate: NC(=O)C1=CN([C@@H]2O[C@H](COP(=O)(O)OP(=O)(O)OC[C@H]3O[C@@H](n4cnc5c(N)ncnc54)[C@H](O)[C@@H]3O)[C@@H](O)[C@H]2O)C=CC1; experiment: ALDH reaction (acetyl-CoA reduction) of purified AdhE, apparent kinetics; format: biochemical, Clostridium thermocellum; settings: pH 7.0; 55.0 °C
Method: as §1, §2, §3

[11] = substrate: CC(=O)SCCNC(=O)CCNC(=O)[C@H](O)C(C)(C)COP(=O)(O)OP(=O)(O)OC[C@H]1O[C@@H](n2cnc3c(N)ncnc32)[C@H](O)[C@@H]1OP(=O)(O)O; experiment: as above; format: biochemical, Clostridium thermocellum; settings: pH 7.0; 55.0 °C
Method: as §1, §2, §3

[12] = in the presence of 2.35 mM NAD^+

NAD(P)^+ was tested, and the “activity inhibited by NAD(P)^+” value [1] was “at least 70%”.

In the case of `CCO` [ethanol], the “increase in ADH activity” value ([2]; purified adhe) is reported as 2 fold.

In the case of `NC(=O)c1ccc[n+]([C@@H]2O[C@H](COP(=O)([O-])OP(=O)(O)OC[C@H]3O[C@@H](n4cnc5c(N)ncnc54)[C@H](O)[C@@H]3O)[C@@H](O)[C@H]2O)c1` [NAD^+], the ADH activity retained [2, 12] is reported as 98%, the ALDH activity retained [2, 12] is reported as 92% and the “inhibition by NAD^+” value ([2]; purified AdhE, concentration not stated) is reported as “less than 10%”.

B1: (Acetivibrio thermocellus; D494G) (protein)
chain: MTKIANKYEVIDNVEKLEKALKRLREAQSVYATYTQEQVDKIFFEAAMAANKMRIPLAKMAVEETGMGVVEDKVIKNHYASEYIYNAYKNTKTCGVIEEDPAFGIKKIAEPLGVIAAVIPTTNPTSTAIFKTLIALKTRNAIIISPHPRAKNSTIEAAKIVLEAAVKAGAPEGIIGWIDVPSLELTNLVMREADVILATGGPGLVKAAYSSGKPAIGVGAGNTPAIIDDSADIVLAVNSIIHSKTFDNGMICASEQSVIVLDGVYKEVKKEFEKRGCYFLNEDETEKVRKTIIINGALNAKIVGQKAHTIANLAGFEVPETTKILIGEVTSVDISEEFAHEKLCPVLAMYRAKDFDDALDKAERLVADGGFGHTSSLYIDTVTQKEKLQKFSERMKTCRILVNTPSSQGGIGDLYNFKLAPSLTLGCGSWGGNSVSDNVGVKHLLNIKTVAERRENMLWFRTPEKIYIKRGCLPVALDELKNVMGKKKAFIVTGNFLYNNGYTKPITDKLDEMGIVHKTFFDVSPDPSLASAKAGAAEMLAFQPDTIIAVGGGSAMDAAKIMWVMYEHPEVDFMDMAMRFMDIRKRVYTFPKMGQKAYFIAIPTSAGTGSEVTPFAVITDEKTGIKYPLADYELLPDMAIVDADMMMNAPKGLTAASGIDALTHALEAYVSMLATDYTDSLALRAIKMIFEYLPRAYENGASDLVAREKMANAATIAGMAFANAFLGVCHSMARKLGAFYHLPHGVANALMINEVIRFNSSEAPTKMGTFPQYDHPRTLERYAEIADYIGLKGKNNEEKVENLIKAIDELKEKVGIRKTIKDYDIDEKEFLDRLDEMVEQAFDDQCTGTNPRYPLMNEIRQMYLNAYYGGAKK
For B1, the Km [3] was 0.08 ± 0.02 mM, the kcat [3] was 295 ± 18 s⁻¹ and the kcat/Km [3] was 3.8e+06 M⁻¹ s⁻¹. The Km [4] was 2.1 ± 0.2 mM and 1.8 ± 0.2 mM, the kcat [4] was 318 s⁻¹ and 246 s⁻¹ and the kcat/Km [4] was 150000 M⁻¹ s⁻¹ and 140000 M⁻¹ s⁻¹. For the same molecule, the Km [5] was 0.4 ± 0.05 mM, the kcat [5] was 319 ± 21 s⁻¹ and the kcat/Km [5] was 890000 M⁻¹ s⁻¹. For the same molecule, the Km [6] was 0.02 ± 0.002 mM, the kcat [6] was 64 ± 2 s⁻¹ and the kcat/Km [6] was 3.4e+06 M⁻¹ s⁻¹. For the same molecule, the Km [7] was 4 ± 0.5 µM, the kcat [7] was 202 ± 4 s⁻¹ and the kcat/Km [7] was 5.8e+07 M⁻¹ s⁻¹.

B2: (Acetivibrio thermocellus) (protein)
chain: MTKIANKYEVIDNVEKLEKALKRLREAQSVYATYTQEQVDKIFFEAAMAANKMRIPLAKMAVEETGMGVVEDKVIKNHYASEYIYNAYKNTKTCGVIEEDPAFGIKKIAEPLGVIAAVIPTTNPTSTAIFKTLIALKTRNAIIISPHPRAKNSTIEAAKIVLEAAVKAGAPEGIIGWIDVPSLELTNLVMREADVILATGGPGLVKAAYSSGKPAIGVGAGNTPAIIDDSADIVLAVNSIIHSKTFDNGMICASEQSVIVLDGVYKEVKKEFEKRGCYFLNEDETEKVRKTIIINGALNAKIVGQKAHTIANLAGFEVPETTKILIGEVTSVDISEEFAHEKLCPVLAMYRAKDFDDALDKAERLVADGGFGHTSSLYIDTVTQKEKLQKFSERMKTCRILVNTPSSQGGIGDLYNFKLAPSLTLGCGSWGGNSVSDNVGVKHLLNIKTVAERRENMLWFRTPEKIYIKRGCLPVALDELKNVMGKKKAFIVTDNFLYNNGYTKPITDKLDEMGIVHKTFFDVSPDPSLASAKAGAAEMLAFQPDTIIAVGGGSAMDAAKIMWVMYEHPEVDFMDMAMRFMDIRKRVYTFPKMGQKAYFIAIPTSAGTGSEVTPFAVITDEKTGIKYPLADYELLPDMAIVDADMMMNAPKGLTAASGIDALTHALEAYVSMLATDYTDSLALRAIKMIFEYLPRAYENGASDLVAREKMANAATIAGMAFANAFLGVCHSMARKLGAFYHLPHGVANALMINEVIRFNSSEAPTKMGTFPQYDHPRTLERYAEIADYIGLKGKNNEEKVENLIKAIDELKEKVGIRKTIKDYDIDEKEFLDRLDEMVEQAFDDQCTGTNPRYPLMNEIRQMYLNAYYGGAKK
With B2 the Km [8] was 1.3 ± 0.2 mM, the kcat [8] was 238 ± 8 s⁻¹ and the kcat/Km [8] was 180000 M⁻¹ s⁻¹. The Km [9] was 0.1 ± 0.02 mM, the kcat [9] was 302 ± 13 s⁻¹ and the kcat/Km [9] was 2.3e+06 M⁻¹ s⁻¹. For the same molecule, the Km [10] was 0.06 ± 0.004 mM, the kcat [10] was 152 ± 4 s⁻¹ and the kcat/Km [10] was 2.8e+06 M⁻¹ s⁻¹. For the same molecule, the Km [11] was 8 ± 2 µM, the kcat [11] was 297 ± 11 s⁻¹ and the kcat/Km [11] was 3.5e+07 M⁻¹ s⁻¹.
